Measurements: patent US20230112123A1

Experiments:
human CD70 (human) [1] = molecular target: human CD70 (human) (UniProt P32970); assay: FACS binding; Raji cells
human CD70 (human) [2] = molecular target: human CD70 (human) (UniProt P32970); assay: FACS binding; U266 cells
human CD70 (human) [3] = molecular target: human CD70 (human) (UniProt P32970); assay: FACS binding; CHO-CD70 cells

human CD70 (human), sequence (P32970 whole entry): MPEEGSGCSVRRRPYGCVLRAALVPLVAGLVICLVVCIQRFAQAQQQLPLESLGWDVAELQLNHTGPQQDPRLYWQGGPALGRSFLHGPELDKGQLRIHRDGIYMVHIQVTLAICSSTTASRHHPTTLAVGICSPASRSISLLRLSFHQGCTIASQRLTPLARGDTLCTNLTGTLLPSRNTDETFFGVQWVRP

Substance	EC50 (human CD70 (human) [1])	EC50 (human CD70 (human) [2])	EC50 (human CD70 (human) [3])
Cusatuzumab	2.16 nM	0.671 nM	
IMM40C		0.0715 µg/mL	0.501 µg/mL
